# Experiments:
# [1] = target: recombinant MERS-CoV S1 protein (MERS-CoV); test: SPR
# [2] = target: recombinant MERS-CoV S1 protein (MERS-CoV); test: SPR; remark: listed apart in the source
Binder,koff [1] [s⁻¹],Kd [2] [nM]
"IgG1 m336-gL (all light-chain somatic mutations reverted to germline) (antibody, V domains shown) VH: QVQLVQSGAEVKKPGSSVKVSCKASGGTFSSYAISWVRQAPGQGLEWMGGIIPIFGTASYAQKFQGRVTITADKSTSTAYMELSSLRSEDTAVYYCARVGYCSSTSCNRGAFDIWGQGTMVTVSS VL: DIQMTQSPSSLSASVGDRVTITCRASQGIRNDLGWYQQKPGKAPKRLIYAASSLQSGVPSRFSGSGSGTEFTLTISSLQPEDFATYYCLQHNSYPLTFGGGTKVEIK",0.000545,25.2
"IgG1 m336-gL-FR (light-chain framework somatic mutations reverted to germline) (antibody, V domains shown) VH: QVQLVQSGAEVKKPGSSVKVSCKASGGTFSSYAISWVRQAPGQGLEWMGGIIPIFGTASYAQKFQGRVTITADKSTSTAYMELSSLRSEDTAVYYCARVGYCSSTSCNRGAFDIWGQGTMVTVSS VL: DIQMTQSPSSLSASVGDRVTITCRASQGIRNDLGWYQQKPGKAPKRLIYAASSLQSGVPSRFSGSGSGTEFTLTISSLQPEDFATYYCQQLNSYPLTFGGGTKVEIK",0.000769,15.7
"IgG1 m336 (antibody, V domains shown) VH: QVQLVQSGAEVKKPGSSVKVSCKASGGTFSSYAISWVRQAPGQGLEWMGGIIPIFGTASYAQKFQGRVTITADKSTSTAYMELSSLRSEDTAVYYCARVGYCSSTSCNRGAFDIWGQGTMVTVSS VL: DIQLTQSPSSLSASVGDRVTITCRASQGIRNDLGWYQQKPGKAPKLLIYAASSLQSGVPSRFSGSGSGTDFTLTISSLQPEDFATYYCQQLNSYPLTFGGGTKVEIK",0.000955,1.49
"IgG1 m336-gH (heavy-chain somatic mutation reverted to germline) (antibody, V domains shown) VH: QVQLVQSGAEVKKPGSSVKVSCKASGGTFSSYAISWVRQAPGQGLEWMGGIIPIFGTANYAQKFQGRVTITADKSTSTAYMELSSLRSEDTAVYYCARVGYCSSTSCNRGAFDIWGQGTMVTVSS VL: DIQLTQSPSSLSASVGDRVTITCRASQGIRNDLGWYQQKPGKAPKLLIYAASSLQSGVPSRFSGSGSGTDFTLTISSLQPEDFATYYCQQLNSYPLTFGGGTKVEIK",0.000329,0.239

# — PMC4571279 (2015)
